# “Also recorded” adds a separate entry of the source.
# B1: CRT-2: fragment (1-349 aa) of recombinantly expressed CRT, amino acid sequence SEQ ID NO: 9 (protein)
# chain: EPAVYFKEQFLDGDGWTSRWIESKHKSDFGKFVLSSGKFYGDEEKDKGLQTSQDARFYALSASFEPFSNKGQTLVVQFTVKHEQNIDCGGGYVKLFPNSLDQTDMHGDSEYNIMFGPDICGPGTKKVHVIFNYKGKNVLINKDIRCKDDEFTHLYTLIVRPDNTYEVKIDNSQVESGSLEDDWDFLPPKKIKDPDASKPEDWDERAKIDDPTDSKPEDWDKPEHIPDPDAKKPEDWDEEMDGEWEPPVIQNPEYKGEWKPRQIDNPDYKGTWIHPEIDNPEYSPDPSIYAYDNFGVLGLDLWQVKSGTIFDNFLITNDEAYAEEFGNETWGVTKAAEKQMKDKQDEEQR
# Legend:
# [1] = tested on: testosterone, dihydrotestosterone, and estradiol; experiment: Second experiment: hormone content in serum and skin tissue by ELISA; assay type: in vivo, C57BL/6 male mice; details: compared with the model group
# Method: (§1) Experimental animals: C57BL/6 male mice, 6-7 weeks old, weighing (20±2) g, were provided by Beijing Vital River Laboratory Animal Technology Co. Ltd., with the animal license number of SCXK (Beijing) 2021-0006. They were kept in a 12 h light/12 h dark environment, with free access to food and water. The mice were divided into normal control group (normal group, NC), model group (Model), experimental group C (rh-CRT-2, with a concentration of 0.35 mg/ml) including an injection group and an external application group, experimental group D (rh-CRT-3, with a concentration of 0.21 mg/ml) including an injection group and external application group, and positive control-minoxidil group (Minoxidil). The proteins were stored in a −70° C. refrigerator and diluted with physiological saline when used. There were 6 mice in each group.
# (§2) Modeling and drug administration: First, the hair loss model was established. One day before the modeling, the hair in the center of the back of the experimental animal was removed with a skin preparation knife, and the prepared skin area was depilated with a depilatory cream. After 24 hours of depilation, the normal control group was given 75% ethanol, and other groups were injected with testosterone solution (5 mg/mL) prepared with 75% ethanol, 0.01 mL/mouse. Two hours later, the injection groups of experimental group C and experimental group D were injected on the back, 0.15 mL/mouse, once a day, for 17 consecutive days; the external application groups of experimental group C and experimental group D were applied on the back, 0.15 mL/mouse, once a day, for 17 consecutive days. The normal control group and the model group were externally applied with physiological saline, once a day, 0.15 mL/mouse, for 17 consecutive days. During the drug administration process, except for the normal control group, all other groups were injected with the modeling agent (testosterone), and administrated with drugs after 2 hours. […] After the experiment, the mouse skin was pathologically sectioned as follows: The skin pathological tissue was fixed in 4% paraformaldehyde, trimmed, dehydrated and transparent, and then embedded. The slices were cut with a thickness of 6 μm using a paraffin slicer, and further dewaxed, stained, dehydrated, transparent and sealed. The hair follicles in different areas were observed under an optical microscope, and the number of hair follicles was statistically analyzed.
# Hormone content in serum and skin tissue: At the end of the experiment, blood was collected from the mice's orbits, kept at room temperature for 30 min, centrifuged at 5,000 r/min for 10 min, and the serum was removed. At the end of the experiment, skin tissue was collected and stored in a −80° C. refrigerator. During the experiment, the skin tissue was homogenized, and the changes in testosterone, dihydrotestosterone, and estradiol of the serum and skin tissue in each group were detected by enzyme-linked immunosorbent assay (ELISA).
# (§3) Statistical analysis: All data were processed using SPSS 17.0 software. One-way ANOVA was used for comparisons among multiple groups. Data were expressed as mean±standard deviation (x±s). P<0.05 was considered statistically significant, and P>0.05 was not considered statistically significant.
# [2] = tested on: AGA (androgenic alopecia) model mice; experiment: Third experiment: hair growth score in DHT-induced AGA model mice; assay type: in vivo, C57BL/6N male mice; details: Day 17, P<0.05
# Method: C57BL/6N male mice, 6-7 weeks old, weighing (18-20) g, 50 mice, with the animal license number of SCXK (Beijing) 2021-0006, were kept in a 12 h light/12 h dark environment, with free access to food and water. Adaptive feeding was performed for about 1 week.
# The hair in an area of about 2 cm×3 cm at the border of the spine was shaved using an electric shaver. The depilatory area was applied with 8% sodium sulfide solution. After 90±10 s, the depilatory area on the back was cleaned with cotton balls dipped in water, the residual sodium sulfide was washed away with a washing bottle, and then the mice were wiped dry. Because the hair follicle cycle of mice was in the resting phase at this time, the mouse skin was pink. Mice were randomly divided into groups using Excel software, 10 mice in each group, and the modeling was established after 24 h and the drug was administered for 17 consecutive days. The AGA model was established by injecting dihydrotestosterone into the experimental mice. Dihydrotestosterone (DHT) solution was injected subcutaneously at multiple points every day, 100 μL/mouse (5 mg/kg body weight), and then the drug was administered after 3 h of absorption. CRT-2 and CRT-1 protein solutions were applied externally. 100 μL of protein solution was applied, and 100 μl of minoxidil MNX was applied. The CRT and MNX combination group was first applied with CRT-2 protein solution and then MNX 2 hours later. The solvent formula comprised 50% ethanol, 20% propylene glycol, and 30% pure water.
# Scoring was based on the coverage of hair growth: • 0 points: no hair growth, pink in the hair removal area; • 1 point: gray in the hair removal area, hair coverage area E<20%; • 2 points: black in the hair removal area, hair coverage area 20%<E<40%; • 3 points: black in the hair removal area with a little hair growth, hair coverage area 40%<E<60%; • 4 points: black in the hair removal area with some hair growth, hair coverage area 60%<E<80%; • 5 points: black in the hair removal area, hair coverage area 80%<E<100%.
# The skin color changes of mice were observed before administration every day. The hair removal time of mice was designated as Day 0, the first day of administration was designated as Day 1, and so on. The hair growth of each mouse was recorded and analyzed on Day 7, Day 9, Day 11, Day 13, Day 15, and Day 17.
# [3] = tested on: mice with androgenic alopecia; experiment: Second experiment: testosterone hair loss model, hair growth, skin blackness, scanning electron microscopy and hair follicle count; assay type: in vivo, C57BL/6 male mice; details: for hair growth on the back skin: 17th day, 0.15 mL/mouse once a day; for growth stage and quantity of back hair under dermoscope: end of experiment
# Method: as §1, §2
# Scanning electron microscopy observation: At the end of the experiment, hair shafts were randomly plucked from the newly formed hair area on the back of each group of mice. Three mice were selected from each group. The plucked hair shafts were fixed and the changes of hair shafts and hair cuticles were observed by scanning electron microscopy.
# as §3
# [4] = external application group, compared with the model group
molecule,measurement,setting,value
B1,serum dihydrotestosterone,"[1]; injection group, P<0.01",decreased significantly
same,skin tissue dihydrotestosterone,"[1]; injection group, P<0.01",decreased significantly
same,testosterone level in skin tissue,"[1]; injection group, P<0.05",significantly decreased
same,testosterone level in the serum,"[1]; injection group, P<0.05",significantly decreased
same,serum dihydrotestosterone,"[1]; topical (external application) group, P<0.05",decreased significantly
same,hair growth score compared with the Model group,"[2]; external application 100 μL, CRT 0.35 mg/ml, MNX 5 mg/ml",significantly increased
same,hair growth score compared with the CRT-1 group,[2]; external application,better than; also recorded: significantly increased
same,hair growth on the back skin,[3]; external application group,promoted hair growth the most
same,hair growth on the back skin,[3]; injection group,promoted hair growth
same,blackness of the back skin (color tester),"[3]; Day 14, external application group, compared with the model group, P<0.05",significantly increased
same,blackness of the back skin (color tester),"[3]; Day 17, external application group, compared with the model group, P<0.01",significantly increased
same,blackness of the back skin (color tester),"[3]; Day 17, injection group, compared with the model group, P<0.01",significantly increased
same,growth stage and quantity of back hair under dermoscope,[3]; [4],increased number and became thicker
same,growth stage and quantity of back hair under dermoscope,"[3]; injection group, compared with the model group",less and fine
same,hair cuticles under scanning electron microscopy,[3]; [4],dense
same,hair shafts under scanning electron microscopy,[3]; [4],became significantly thicker
same,number of hair follicles (pathological section),"[3]; external application group, compared with the model group, P<0.01",most significant effect
same,hair cuticles under scanning electron microscopy,[3]; injection group,dense
same,hair shafts under scanning electron microscopy,[3]; injection group,thin
same,number of hair follicles (pathological section),"[3]; injection group, compared with the model group, P<0.01",significantly promoted
